Source: publication PMC5076566 (Cell, 2016)

T1: His-3xFlag tagged D290V hnRNPA2 LCS (181-341 aa) (human, UniProt P22626-2 181-341, D290V)
T1 sequence (looked up): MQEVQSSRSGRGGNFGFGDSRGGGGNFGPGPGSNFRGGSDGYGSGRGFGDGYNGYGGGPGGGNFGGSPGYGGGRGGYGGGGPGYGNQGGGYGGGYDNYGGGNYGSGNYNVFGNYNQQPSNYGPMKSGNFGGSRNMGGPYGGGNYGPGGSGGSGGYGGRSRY


Tests used:
[1] = biological target: the molecule itself; assay: polymerisation and hydrogel formation
[2] = biological target: GFP:hnRNPA1 full length (residue 2-320) (human, UniProt P09651-2 2-320); assay: co-IP
[3] = biological target: GFP:hnRNPA1 ΔRRM (186-320), the C-terminal LC domain (human, UniProt P09651-2 186-320); assay: co-IP
[4] = biological target: T1, His-3xFlag tagged D290V hnRNPA2 LCS …; assay: co-IP
[5] = biological target: Recombinant human vimentin, full length (2-466 AA), assembled into intermediate filaments (human, UniProt P08670 2-466); assay: transmission electron microscopy of filaments mixed with test protein

Row | Binder | binding result [1] | other results
1 | mCherry:neurofilament light isoform head domain (2-100) (domain or fragment, human, UniProt P07196 2-100, looked up) SSFSYEPYYSTSYKRRYVETPRVHISSVRSGYSTARSAYSSYSAPVSSSLSVRRSYSSSSGSLMPSLENLDLSQVAAISNDLKSIRTQEKAQLQDLNDR | binds | 
2 | PRPRPRPRPRPRPRPRPRPRPRPRPRPRPRPRPRPRPRPR [PR20HA peptide (20 repeats of PR with an HA epitope tag at the C-terminus)] |  | binding result [2]: binds; binding result [3]: binds; binding result [4]: binds
3 | mCherry:vimentin head domain (2-95) (domain or fragment, human, UniProt P08670 2-95, looked up) STRSVSSSSYRRMFGGPGTASRPSSSRSYVTTSTRTYSLGSALRPSTSRSLYASSPGGVYATRSSAVRLRSSVPGVRLLQDSVDFSLADAINTE | binds | 
4 | mCherry:neurofilament heavy isoform head domain (3-100) (domain or fragment, human, UniProt P12036 3-100, looked up) SFGGADALLGAPFAPLHGGGSLHYALARKGGAGGTRSAAGSSSGFHSWTRTSVSSVSASPSRFRGAGAASSTDSLDTLSNGPEGCMVAVATSRSEKEQ | binds | 
5 | GFP:FUS LC domain (residue 2-214) (domain or fragment, UniProt P35637 2-214, looked up) ASNDYTQQATQSYGAYPTQPGQGYSQQSSQPYGQQSYSGYSQSTDTSGYGQSSYSSYGQSQNTGYGTQSTPQGYGSTGGYGSSQSSQSSYGQQSSYPGYGQQPAPSSTSGSYGSSSQSSSYGQPQSGSYSQQPSYGGQQQSYGQQQSYNPPQGYGQQNQYNSSSGGGGGGGGGGNYGQDQSSMSSGGGSGGGYGNQDQSGGGGSGGYGQQDRG |  | binding result [5]: binds
6 | mCherry:neurofilament medium isoform head domain (2-104) (domain or fragment, human, UniProt P07197 2-104, looked up) SYTLDSLGNPSAYRRVTETRSSFSRVSGSPSSGFRSQSWSRGSPSTVSSSYKRSMLAPRLAYSSAMLSSAESSLDFSQSSSLLNGGSGPGGDYKLSRSNEKEQ | binds | 
7 | mCherry:peripherin head domain (2-99) (domain or fragment, human, UniProt P41219 2-99, looked up) SHHPSGLRAGFSSTSYRRTFGPPPSLSPGAFSYSSSSRFSSSRLLGSASPSSSVRLGSFRSPRAGAGALLRLPSERLDFSMAEALNQEFLATRSNEKQ | binds | 
